PMC13226697, “Stress-induced OMA1-mediated cleavage of AIFM1 suppresses cell growth by controlling mitochondrial OXPHOS activity” (The EMBO Journal, 2026)

Target: the molecule itself
Test: native gel or EMSA; CN-PAGE of mitochondria solubilised in 0.5% digitonin, with or without FCCP, immunoblot with AIFM1 antibodies

B1: AIFM1^TCS/TEV, soluble product of AIFM1^TCS cleaved by IMS-TEV protease (domain or fragment, murine)
chain: GVMGLGLSPEEKQRRAIASATEGGSVPQIRAPSHVPFLLIGGGTAAFAAARSIRARDPGARVLIVSEDPELPYMRPPLSKELWFSDDPNVTKTLQFRQWNGKERSIYFQPPSFYVSAQDLPNIENGGVAVLTGKKVVHLDVRGNMVKLNDGSQITFEKCLIATGGTPRSLSAIDRAGAEVKSRTTLFRKIGDFRALEKISREVKSITVIGGGFLGSELACALGRKSQASGIEVIQLFPEKGNMGKILPQYLSNWTMEKVKREGVKVMPNAIVQSVGVSGGRLLIKLKDGRKVETDHIVTAVGLEPNVELAKTGGLEIDSDFGGFRVNAELQARSNIWVAGDAACFYDIKLGRRRVEHHDHAVVSGRLAGENMTGAAKPYWHQSMFWSDLGPDVGYEAIGLVDSSLPTVGVFAKATAQDNPKSATEQSGTGIRSESETESEASEITIPPSAPAVPQVPVEGEDYGKGVIFYLRDKVVVGIVLWNVFNRMPIARKIIKDGEQHEDLNEVAKLFNIHED
notes: additional glycine residue at the N-terminus, left from the TEV site ENLYFQG after TEV processing; Murine AIFM1 from V98, the residue after the replaced R97, to the end of A.A.1-612; Expected molecular weight ~60 kDa including the Myc tag; The dimer is an estimate from CN-PAGE; also called membrane-dislocated AIFM1 variant; soluble AIFM1^TCS/TEV; not shown: 3x Myc, C-terminal, kept
  stoichiometry N: 2
